# Data as given in patent US12091446 (NATIONAL TECHNOLOGY AND ENGINEERING SOLUTIONS OF SANDIA, dated 2024).
# Changes are numbered by the printed parent chain.
# B1: BP1A10 Nb-huFc (Fc fusion)
# chain: EVQLQASGGGFVQPGGSLRLSCAASGQPSDRYIMGWFRQAPGKEREFVSAISQGAANKTAYADSVKGRFTISRDNSKNTVYLQMNSLRAEDTATYYCATHFNWQNYSYWGQGTQVTVSS
# B2: AP1C3 Nb-huFc (Fc fusion)
# chain: EVQLQASGGGFVQPGGSLRLSCAASGRTYRGYSMGWFRQAPGKEREFVSAISSWSDDWTAYADSVKGRFTISRDNSKNTVYLQMNSLRAEDTATYYCAWQYIDEIQYYWGQGTQVTVSS
# B3: BP2A6 Nb-huFc (Fc fusion)
# chain: EVQLQASGGGFVQPGGSLRLSCAASGQTFSHYIMGWFRQAPGKEREFVSAISAGQGHATYYADSVKGRFTISRDNSKNTVYLQMNSLRAEDTATYYCAKYQDTIAPLYWGQGTQVTVSS
# B4: AP1A5 Nb-huFc (Fc fusion)
# chain: EVQLQASGGGFVQPGGSLRLSCAASGSTASHYTMGWFRQAPGKEREFVSAISSGRDHAKQYADSVKGRFTISRDNSKNTVYLQMNSLRAEDTATYYCAYEEINATQKDTLYWGQGTQVTVSS
# B5: AP1B6 Nb-huFc (Fc fusion)
# chain: EVQLQASGGGFVQPGGSLRLSCAASGSAFQIYAMGWFRQAPGKEREFVSAISSTDSETDHYADSVKGRFTISRDNSKNTVYLQMNSLRAEDTATYYCAVNGFDYAHSKAGPQVYWGQGTQVTVSS
# B6: AP1D4 Nb-huFc (Fc fusion)
# chain: EVQLQASGGGFVQPGGSLRLSCAASGHTFDAHRMGWFRQAPGKEREFVSAISSWGQSSTYYADSVKGRFTISRDNSKNTVYLQMNSLRAEDTATYYCAQTDEGNQYVYWGQGTQVTVSS
# B7: BP2A3 Nb-huFc (Fc fusion)
# chain: EVQLQASGGGFVQPGGSLRLSCAASGRTFSAYSMGWFRQAPGKEREFVSAISAGDGAASYYADSVKGRFTISRDNSKNTVYLQMNSLRAEDTATYYCAHYYTTSATLDYAYWGQGTQVTVSS
# B8: KP1B5 Nb-huFc (Fc fusion)
# chain: EVQLQASGGGFVQPGGSLRLSCAASGFTFDWSAMGWFRQAPGKEREFVSAISSSTSESTTYADSVKGRFTISRDNSKNTVYLQMNSLRAEDTATYYCATYYGGKTVEQDFYWGQGTQVTVSS
# B9: BP1B1 Nb-huFc (Fc fusion)
# chain: EVQLQASGGGFVQPGGSLRLSCAASGRTFSGYIMGWFRQAPGKEREFVSAISQGDSYASYYADSVKGRFTISRDNSKNTVYLQMNSLRAEDTATYYCALYDINTVPYYWGQGTQVTVSS
# B10: KP2C6 Nb-huFc (Fc fusion)
# chain: EVQLQASGGGFVQPGGSLRLSCAASGRTFTSFHMGWFRQAPGKEREFVSAISSGDDGTQYYADSVKGRFTISRDNSKNTVYLQMNSLRAEDTATYYCAAYTTTTVPQYWGQGTQVTVSS
# B11: KP1C9 Nb-huFc (Fc fusion)
# chain: B2 chain with Y29F, R30D, G31A, W99L, Y101N, I102T, D103K, I105D, Q106R, Y107L
# B12: DP4F2 Nb-huFc (Fc fusion)
# chain: EVQLQASGGGFVQPGGSLRLSCAASGTTYSERVMGWFRQAPGKEREFVSAISSGQSDQTYYYADSVKGRFTISRDNSKNTVYLQMNSLRAEDTATYYCAPFAGDANLPREWYWGQGTQVTVSSA
# Target: T1, SARS-COV-2 spike, Wuhan (original) (SARS-COV-2, UniProt P0DTC2 14-1273)
# Assay: cell-based or functional assay
row,Binder,"EC50, neutralization of spike pseudotyped virus [nM]"
1,B1,8.38
2,B2,1.04
3,B3,0.77
4,B4,11.9
5,B5,3.32
6,B6,6.62

# Target: T1, SARS-COV-2 spike, Wuhan (original)
# Assay: cell-based or functional assay
# Remark: another data set of the same source
row,Binder,"EC50, neutralization of spike pseudotyped virus [nM]"
1,B7,58.5
2,B8,896
3,B9,4.13
4,B10,517
5,B11,2.89
6,B12,65.8
